In the supplement of paper PMC7877785:
± gives the uncertainty stated by the source.

Experiment: self-splicing fitness, log relative to wild type (ln ratio); higher = more splicing; Tetrahymena group I intron in knt gene, E. coli kanamycin selection, DiMSum; sequences stand for … in CUCUCU…GGAGGGAAAAGUUAUCAGGCAUGCACCUGGUAGCUAGUCUUUAAACCAAUAGAUUGCAUCGGUUUAAAAGGCAAGACCGUCAAAUUGCGGGAAAGGGGUCAACAGCCGUUCAGUACCAAGUCUCAGGGGAAACUUUGAGAUGGCCUUGCAAAGGGUAUGGUAAUAAGCUGACGGACAUGGUCCUAACCACGCAGCCAAGUCCUAAGUCAACAGAUCUUCUGUUGAUAUGGAUGCAGUUCACAGACUAAAUGUCGGUCGGGGAAGAUGUAUUCUUCUCAUAAGAUAUAGUCGGACCUCUCCUUAAUGGGAGCUAGCGGAUGAAGUGAUGCAACACUGGAGCCGCUGGGAACUAAUUUGUAUGCGAAAGUAUAUUGAUUAGUUUUGGAGUACUCGUGGUCG
How it was run: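 A randomised library covering all eight P1ex-region intron nucleotides was built with the intron in the knt kanamycin-resistance gene on pET-22b(+) and held in E. coli BL21(DE3). Cells were grown overnight at 37°C or 30°C on LB agar, with or without 25 μg/mL kanamycin, plus 100 μg/mL carbenicillin, 50 μM IPTG and 0.2% rhamnose, and pooled colonies were amplicon-sequenced on an Illumina HiSeq 2500. DiMSum fitness is the error-weighted combination of wild-type-normalised replicate fold changes, kanamycin versus none.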

Sequence | self-splicing fitness (ln) (30 °C) | self-splicing fitness (ln) (37 °C)
GUUCAGCAAUAUUACGGAAA | -0.778 ± 0.13 | 0.58 ± 0.19
GUUCAGCAAUAUUACGGAUA | -0.566 ± 0.13 | -0.413 ± 0.1
GUUCAGCAAUAUUACGGCGU | -0.298 ± 0.085 | 0.138 ± 0.11
GUUCAGCAAUAUUACGUCAA | -1.86 ± 0.14 | -0.976 ± 0.14
GUUCAGCAAUAUUACGUCAC | -1.78 ± 0.17 | -1.27 ± 0.17
GUUCAGCAAUAUUACGUCGC | -0.991 ± 0.1 | -0.347 ± 0.12
GUUCAGCAAUAUUACGUCUG | -2.67 ± 0.085 | -1.54 ± 0.072
GUUCAGCAAUAUUACGUGCA | -0.645 ± 0.11 | -0.382 ± 0.11
GUUCAGCAAUAUUACGUUUA | -1.21 ± 0.11 | -0.233 ± 0.09
GUUGAGCAAUAUUACGACUC | 0.144 ± 0.2 | -0.535 ± 0.19
GUUGAGCAAUAUUACGAUUA | -1.94 ± 0.21 | -1.23 ± 0.22
GUUGAGCAAUAUUACGCAUU | -2.68 ± 0.2 | -2.45 ± 0.33
GUUGAGCAAUAUUACGCCUG |  | -2.05 ± 0.35
GUUGAGCAAUAUUACGCGCA | -1.02 ± 0.2 | -0.636 ± 0.24
GUUGAGCAAUAUUACGCGUG | -3.36 ± 0.15 | -2.66 ± 0.21
GUUGAGCAAUAUUACGCUCC | -1.81 ± 0.48 | 
GUUGAGCAAUAUUACGCUGC |  | -0.666 ± 0.3
GUUGAGCAAUAUUACGCUUA | -2.55 ± 0.21 | -0.787 ± 0.17
GUUGAGCAAUAUUACGGAGA | -2.47 ± 0.45 | -1.8 ± 0.35
GUUGAGCAAUAUUACGGAGU | -3.52 ± 0.29 | -2.7 ± 0.29
GUUGAGCAAUAUUACGGAUG | -3.56 ± 0.42 | -1.75 ± 0.36
GUUGAGCAAUAUUACGGGCC | -3.53 ± 0.5 | -1.82 ± 0.39
GUUGAGCAAUAUUACGGGGU | -3.56 ± 0.25 | -2.42 ± 0.22

Sequence | self-splicing fitness (ln) (30 °C) | self-splicing fitness (ln) (37 °C)
GUUGAGCAAUAUUACGGUCG |  | -1.73 ± 0.34
GUUGAGCAAUAUUACGUAAC | -2.16 ± 0.42 | -2.88 ± 0.3
GUUGAGCAAUAUUACGUACA |  | -2.37 ± 0.49
GUUGAGCAAUAUUACGUGGU | -3.25 ± 0.28 | 
GUUGAGCAAUAUUACGUUAA | -2.83 ± 0.38 | -2.34 ± 0.25
GUUGAGCAAUAUUACGUUGG | -4.19 ± 0.28 | -2.01 ± 0.31
GUUGAGCAAUAUUACGUUUU | -2.91 ± 0.22 | -2.88 ± 0.3
GUUUAGCAAUAUUACGAAGC |  | -1.3 ± 0.31
GUUUAGCAAUAUUACGAAUU | -2.25 ± 0.38 | -0.545 ± 0.31
GUUUAGCAAUAUUACGACUC | 0.0633 ± 0.12 | 0.248 ± 0.15
GUUUAGCAAUAUUACGAGGU | -3.03 ± 0.2 | -2.03 ± 0.2
GUUUAGCAAUAUUACGCAAG | -2.45 ± 0.18 | -0.942 ± 0.17
GUUUAGCAAUAUUACGCACC | -1.95 ± 0.19 | -0.522 ± 0.26
GUUUAGCAAUAUUACGCGGG | -2.42 ± 0.19 | -1.89 ± 0.19
GUUUAGCAAUAUUACGCUAU |  | -1.56 ± 0.29
GUUUAGCAAUAUUACGGACC | -2.41 ± 0.35 | 
GUUUAGCAAUAUUACGGAGA |  | -2.24 ± 0.46
GUUUAGCAAUAUUACGGAGC |  | -2.99 ± 0.44
GUUUAGCAAUAUUACGGCCC | -1.66 ± 0.29 | 
GUUUAGCAAUAUUACGGUAG | -3.53 ± 0.29 | -1.72 ± 0.19
GUUUAGCAAUAUUACGGUCG | -1.35 ± 0.076 | -0.636 ± 0.099
GUUUAGCAAUAUUACGUGAC |  | -0.596 ± 0.41
GUUUAGCAAUAUUACGUGGA | -2.48 ± 0.21 | -2.89 ± 0.29
